Reference: patent US20170306033A1 (Amgen, published 2017)

T1: human PAC1 receptor (human, UniProt P41586 21-468)
T1 sequence: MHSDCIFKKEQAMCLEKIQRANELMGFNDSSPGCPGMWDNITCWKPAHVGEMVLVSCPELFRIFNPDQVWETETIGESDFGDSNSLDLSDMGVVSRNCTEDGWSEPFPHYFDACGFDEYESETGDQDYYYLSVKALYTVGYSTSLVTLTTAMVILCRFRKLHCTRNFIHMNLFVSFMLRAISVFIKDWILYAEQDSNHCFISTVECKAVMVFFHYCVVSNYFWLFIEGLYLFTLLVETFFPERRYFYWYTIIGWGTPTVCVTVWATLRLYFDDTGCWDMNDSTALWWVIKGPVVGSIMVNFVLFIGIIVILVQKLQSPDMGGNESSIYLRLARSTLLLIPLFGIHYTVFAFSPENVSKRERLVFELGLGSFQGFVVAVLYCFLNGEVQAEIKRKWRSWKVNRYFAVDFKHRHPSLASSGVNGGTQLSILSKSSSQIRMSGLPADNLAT

B1: iPS:327017 (bispecific antibody, human IgG1, kappa, N297G)
light 1: not shown
heavy 1: not shown
light 2: EIVLTQSPGTLSLSPGERATLSCRASQSVSSGYLTWYQQKPGQAPRLLIYGASSRATGIPDRFSGSGSGTDFTLTISRLEPEDFAVYYCQQYGNSLSRFGQGTKLEIKRTVAAPSVFIFPPSDEQLKSGTASVVCLLNNFYPREAKVQWKVDNALQSGNSQESVTEQDSKDSTYSLKSTLTLSKADYEKHKVYACEVTHQGLSSPVTKSFNRGEC
heavy 2: not shown
B2: iPS:327018 (bispecific antibody, human IgG1, kappa, N297G)
light 1: DIQLTQSPSFLSASVGDRVTITCRASQSIGRSLHWYQQKPGKAPKLLIKYASQSLSGVPSRFSGSGSGTEFTLTISSLQPEDFATYYCHQSSRLPFTFGPGTKVDIKRTVAAPSVFIFPPSDEQLKSGTASVVCLLNNFYPREAKVQWKVDNALQSGNSQESVTEQDSKDSTYSLESTLTLSKADYEKHKVYACEVTHQGLSSPVTKSFNRGEC
heavy 1: not shown
light 2: EIVLTQSPGTLSLSPGERATLSCRASQSVSSGYLTWYQQKPGQAPRLLIYGASSRATGIPDRFSGSGSGTDFTLTISRLEPEDFAVYYCQQYGNSLSRFGQGTKLEIKRTVAAPSVFIFPPSDEQLKSGTASVVCLLNNFYPREAKVQWKVDNALQSGNSQESVTEQDSKDSTYSLKSTLTLSKADYEKHKVYACEVTHQGLSSPVTKSFNRGEC
heavy 2: not shown
B3: iPS:327026 (bispecific antibody, human IgG1, kappa, N297G)
light 1: EIVLTQSPATLSLSPGERATLSCRASQSVGRSLHWYQQKPGQAPRLLIKYASQSLSGIPARFSGSGSGTDFTLTISSLEPEDFAVYYCHQSSRLPFTFGEGTKVDIKRTVAAPSVFIFPPSDEQLKSGTASVVCLLNNFYPREAKVQWKVDNALQSGNSQESVTEQDSKDSTYSLESTLTLSKADYEKHKVYACEVTHQGLSSPVTKSFNRGEC
heavy 1: not shown
light 2: EIVLTQSPGTLSLSPGERATLSCRASQSVSSGYLTWYQQKPGQAPRLLIYGASSRATGIPDRFSGSGSGTDFTLTISRLEPEDFAVYYCQQYGNSLSRFGKGTKLEIKRTVAAPSVFIFPPSDEQLKSGTASVVCLLNNFYPREAKVQWKVDNALQSGNSQESVTEQDSKDSTYSLKSTLTLSKADYEKHKVYACEVTHQGLSSPVTKSFNRGEC
heavy 2: not shown
B4: iPS:327019 (bispecific antibody, human IgG1, kappa, N297G)
light 1: EIVLTQSPATLSLSPGERATLSCRASQSVGRSLHWYQQKPGQAPRLLIKYASQSLSGIPARFSGSGSGTDFTLTISSLEPEDFAVYYCHQSSRLPFTFGPGTKVDIKRTVAAPSVFIFPPSDEQLKSGTASVVCLLNNFYPREAKVQWKVDNALQSGNSQESVTEQDSKDSTYSLESTLTLSKADYEKHKVYACEVTHQGLSSPVTKSFNRGEC
heavy 1: not shown
light 2: EIVLTQSPGTLSLSPGERATLSCRASQSVSSGYLTWYQQKPGQAPRLLIYGASSRATGIPDRFSGSGSGTDFTLTISRLEPEDFAVYYCQQYGNSLSRFGQGTKLEIKRTVAAPSVFIFPPSDEQLKSGTASVVCLLNNFYPREAKVQWKVDNALQSGNSQESVTEQDSKDSTYSLKSTLTLSKADYEKHKVYACEVTHQGLSSPVTKSFNRGEC
heavy 2: not shown
B5: iPS:327091 (bispecific antibody, human IgG1, kappa, N297G)
light 1: not shown
heavy 1: not shown
light 2: EIVLTQSPGTLSLSPGERATLSCRASQSVSSGYLTWYQQKPGQAPRLLIYGASSRATGIPDRFSGSGSGTDFTLTISRLEPEDFAVYYCQQYGNSLSRFGQGTKLEIKRTVAAPSVFIFPPSDEQLKSGTASVVCLLNNFYPREAKVQWKVDNALQSGNSQESVTEQDSKDSTYSLKSTLTLSKADYEKHKVYACEVTHQGLSSPVTKSFNRGEC
heavy 2: not shown
B6: iPS:328050 (bispecific antibody, human IgG1, kappa, lambda, N297G)
light 1: DIQMTQSPSSLSASVGDRITITCRASQSISRYLNWYQQKPGKAPKLLIYAASSLQSGIPSRFSGSGSGTDFTLTINSLQPEDFATYFCQQSYSPPFTFGQGTKVDIKRTVAAPSVFIFPPSDEQLKSGTASVVCLLNNFYPREAKVQWKVDNALQSGNSQESVTEQDSKDSTYSLESTLTLSKADYEKHKVYACEVTHQGLSSPVTKSFNRGEC
heavy 1: not shown
light 2: QSVLTQPPSVSAAPGQKVTISCSGSSSNIGNNYVSWYQQLPGTAPKLLIYDNNKRPSGIPDRFSGSKSGTSTTLGITGLQTGDEADYYCGTWDSRLSAVVFGGGTKLTVLGQPKANPTVTLFPPSSEELQANKATLVCLISDFYPGAVTVAWKADGSPVKAGVETTKPSKQSNNKYAAKSYLSLTPEQWKSHRSYSCQVTHEGSTVEKTVAPTECS
heavy 2: QVQLVESGGGVVQPGRSLRLSCAASGFTFSSFGMHWVRQAPGKGLEWVAVISFDGSIKYSVDSVKGRFTISRDNSKNTLFLQMNSLRAEDTAVYYCARDRLNYYDSSGYYHYKYYGMAVWGQGTTVTVSSASTKGPSVFPLAPSSKSTSGGTAALGCLVKDYFPEPVTVSWNSGALTSGVHTFPAVLQSSGLYSLESVVTVPSSSLGTQTYICNVNHKPSNTKVDKKVEPKSCDKTHTCPPCPAPELLGGPSVFLFPPKPKDTLMISRTPEVTCVVVDVSHEDPEVKFNWYVDGVEVHNAKTKPCEEQYGSTYRCVSVLTVLHQDWLNGKEYKCKVSNKALPAPIEKTISKAKGQPREPQVYTLPPSRKKMTKNQVSLTCLVKGFYPSDIAVEWESNGQPENNYKTTPPVLKSDGSFFLYSKLTVDKSRWQQGNVFSCSVMHEALHNHYTQKSLSLSPGK
B7: iPS:328049 (bispecific antibody, human IgG1, kappa, lambda, N297G)
light 1: not shown
heavy 1: not shown
light 2: QSVLTQPPSVSAAPGQKVTISCSGSSSNIGNNYVSWYQQLPGTAPKLLIYDNNKRPSGIPDRFSGSKSGTSTTLGITGLQTGDEADYYCGTWDSRLSAVVFGKGTKLTVLGQPKANPTVTLFPPSSEELQANKATLVCLISDFYPGAVTVAWKADGSPVKAGVETTKPSKQSNNKYAAKSYLSLTPEQWKSHRSYSCQVTHEGSTVEKTVAPTECS
heavy 2: QVQLVESGGGVVQPGRSLRLSCAASGFTFSSFGMHWVRQAPGKELEWVAVISFDGSIKYSVDSVKGRFTISRDNSKNTLFLQMNSLRAEDTAVYYCARDRLNYYDSSGYYHYKYYGMAVWGQGTTVTVSSASTKGPSVFPLAPSSKSTSGGTAALGCLVKDYFPEPVTVSWNSGALTSGVHTFPAVLQSSGLYSLESVVTVPSSSLGTQTYICNVNHKPSNTKVDKKVEPKSCDKTHTCPPCPAPELLGGPSVFLFPPKPKDTLMISRTPEVTCVVVDVSHEDPEVKFNWYVDGVEVHNAKTKPCEEQYGSTYRCVSVLTVLHQDWLNGKEYKCKVSNKALPAPIEKTISKAKGQPREPQVYTLPPSRKEMTKNQVSLTCLVKGFYPSDIAVEWESNGQPENNYKTTPPVLKSDGSFFLYSKLTVDKSRWQQGNVFSCSVMHEALHNHYTQKSLSLSPGK
B8: iPS:328051 (bispecific antibody, human IgG1, kappa, lambda, N297G)
light 1: not shown
heavy 1: not shown
light 2: QSVLTQPPSVSAAPGQKVTISCSGSSSNIGNNYVSWYQQLPGTAPKLLIYDNNKRPSGIPDRFSGSKSGTSTTLGITGLQTGDEADYYCGTWDSRLSAVVFGGGTKLTVLGQPKANPTVTLFPPSSEELQANKATLVCLISDFYPGAVTVAWKADGSPVKAGVETTKPSKQSNNKYAAKSYLSLTPEQWKSHRSYSCQVTHEGSTVEKTVAPTECS
heavy 2: QVQLVESGGGVVQPGRSLRLSCAASGFTFSSFGMHWVRQAPGKGLEWVAVISFDGSIKYSVDSVKGRFTISRDNSKNTLFLQMNSLRAEDTAVYYCARDRLNYYDSSGYYHYKYYGMAVWGQGTTVTVSSASTKGPSVFPLAPSSKSTSGGTAALGCLVKDYFPEPVTVSWNSGALTSGVHTFPAVLQSSGLYSLESVVTVPSSSLGTQTYICNVNHKPSNTKVDKKVEPKSCDKTHTCPPCPAPELLGGPSVFLFPPKPKDTLMISRTPEVTCVVVDVSHEDPEVKFNWYVDGVEVHNAKTKPCEEQYGSTYRCVSVLTVLHQDWLNGKEYKCKVSNKALPAPIEKTISKAKGQPREPQVYTLPPSRKKMTKNQVSLTCLVKGFYPSDIAVEWESNGQPENNYKTTPPVLKSDGSFFLYSKLTVDKSRWQQGNVFSCSVMHEALHNHYTQKSLSLSPGK
B9: iPS:327023 (bispecific antibody, human IgG1, kappa, N297G)
light 1: DIQMTQSPSSLSASVGDRITITCRASQSISRYLNWYQQKPGKAPKLLIYAASSLQSGIPSRFSGSGSGTDFTLTINSLQPEDFATYFCQQSYSPPFTFGEGTKVDIKRTVAAPSVFIFPPSDEQLKSGTASVVCLLNNFYPREAKVQWKVDNALQSGNSQESVTEQDSKDSTYSLESTLTLSKADYEKHKVYACEVTHQGLSSPVTKSFNRGEC
heavy 1: not shown
light 2: EIVLTQSPGTLSLSPGERATLSCRASQSVSSGYLTWYQQKPGQAPRLLIYGASSRATGIPDRFSGSGSGTDFTLTISRLEPEDFAVYYCQQYGNSLSRFGKGTKLEIKRTVAAPSVFIFPPSDEQLKSGTASVVCLLNNFYPREAKVQWKVDNALQSGNSQESVTEQDSKDSTYSLKSTLTLSKADYEKHKVYACEVTHQGLSSPVTKSFNRGEC
heavy 2: not shown
B10: iPS:328048 (bispecific antibody, human IgG1, kappa, lambda, N297G)
light 1: not shown
heavy 1: not shown
light 2: QSVLTQPPSVSAAPGQKVTISCSGSSSNIGNNYVSWYQQLPGTAPKLLIYDNNKRPSGIPDRFSGSKSGTSTTLGITGLQTGDEADYYCGTWDSRLSAVVFGGGTKLTVLGQPKANPTVTLFPPSSEELQANKATLVCLISDFYPGAVTVAWKADGSPVKAGVETTKPSKQSNNKYAAKSYLSLTPEQWKSHRSYSCQVTHEGSTVEKTVAPTECS
heavy 2: QVQLVESGGGVVQPGRSLRLSCAASGFTFSSFGMHWVRQAPGKGLEWVAVISFDGSIKYSVDSVKGRFTISRDNSKNTLFLQMNSLRAEDTAVYYCARDRLNYYDSSGYYHYKYYGMAVWGQGTTVTVSSASTKGPSVFPLAPSSKSTSGGTAALGCLVKDYFPEPVTVSWNSGALTSGVHTFPAVLQSSGLYSLESVVTVPSSSLGTQTYICNVNHKPSNTKVDKKVEPKSCDKTHTCPPCPAPELLGGPSVFLFPPKPKDTLMISRTPEVTCVVVDVSHEDPEVKFNWYVDGVEVHNAKTKPCEEQYGSTYRCVSVLTVLHQDWLNGKEYKCKVSNKALPAPIEKTISKAKGQPREPQVYTLPPSRKEMTKNQVSLTCLVKGFYPSDIAVEWESNGQPENNYKTTPPVLKSDGSFFLYSKLTVDKSRWQQGNVFSCSVMHEALHNHYTQKSLSLSPGK

Tests used:
[1] = biological target: T1, human PAC1 receptor; test: cell-based or functional assay
[2] = biological target: human CGRP receptor (human, UniProt Q16602 23-461; O60894 27-148); test: cell-based or functional assay
human CGRP receptor, sequence (Q16602 23-461 limits assumed, chain 1 of 2): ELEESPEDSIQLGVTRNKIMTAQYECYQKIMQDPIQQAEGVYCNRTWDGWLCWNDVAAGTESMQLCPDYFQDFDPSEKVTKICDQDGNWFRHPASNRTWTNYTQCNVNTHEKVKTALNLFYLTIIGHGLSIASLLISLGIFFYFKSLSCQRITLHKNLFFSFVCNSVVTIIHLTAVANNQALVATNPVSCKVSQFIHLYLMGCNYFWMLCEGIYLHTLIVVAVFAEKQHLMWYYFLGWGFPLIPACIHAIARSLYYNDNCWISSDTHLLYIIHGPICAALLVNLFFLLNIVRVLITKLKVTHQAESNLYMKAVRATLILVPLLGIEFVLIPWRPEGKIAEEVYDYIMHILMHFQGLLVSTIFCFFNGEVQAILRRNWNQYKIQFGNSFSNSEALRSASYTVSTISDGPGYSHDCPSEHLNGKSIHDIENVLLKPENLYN
human CGRP receptor, sequence (O60894 27-148 limits assumed, chain 2 of 2): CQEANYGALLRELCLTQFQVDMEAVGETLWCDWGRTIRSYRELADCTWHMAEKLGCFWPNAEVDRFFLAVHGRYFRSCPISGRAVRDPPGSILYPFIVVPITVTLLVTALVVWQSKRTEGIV

Binder | % inhibition of human PAC1 [1] | % inhibition of human CGRPR [2]
B1 | 27% | 67%
B2 | 17% | 68%
B3 | 78% | 81%
B4 | 79% | 65%
B5 | 67% | 65%
B6 | 11% | 80%
B7 | 13% | 92%
B8 | 21% | 77%
B9 | 32% | 74%
B10 | 9% | 69%
